In patent publication US20220306768A1, “REDIRECTING DEATH-INDUCING SIGNAL COMPLEX (DISC) BY MODIFYING DEATH RECEPTOR AGONIST TO INDUCE CELL DEATH FOR CANCER TREATMENT” (CITY OF HOPE, priority 2021, published 2022):
“Also recorded” adds a separate entry of the source.

Key:
[1] = phase I studies (Herbst et al., 2010); cited from earlier work
A2780 cells = test: Ovarian cancer xenograft model A2780, implanted intraperitoneally; type: in vivo; conditions: intraperitoneal implant, preliminary data, FIG. 6
Experimental: (§1) In vivo testing was performed using ovarian cancer xenograft models, OVCAR3 and A2780, implanted intraperitoneally.

cancer cell lines = test: Cell death induction in cancer cell lines (Example 1); type: cell-based
Excerpt: Redirecting TRAIL-induced signaling away from lysosomal degradation induced massive cell death and overcame TRAIL resistance. This was done by fusing bioactive protein transduction domains (PTD—or CPPs) and signaling peptides, such as TAT peptide from HIV TAT protein, NLS (nuclear localization signal), MTS (mitochondrial targeting sequence), with TRAIL to construct a series of new TRAILs, as shown in FIG. 7.

[2] = test system: TRAIL-sensitive cancer cell lines; test: Caspase activity in cancer cell lines (FIG. 8); type: cell-based
Excerpt: Of the 60 NCI cancer cell lines, 33 TRAIL-sensitive cells lines become more sensitive to TAT-TRAIL, while 17 of TRAIL-resistant cell lines become sensitive to TAT-TRAIL, only 10 cell lines remain resistant.

OVCAR3 cells = test: Ovarian cancer xenograft model OVCAR3, implanted intraperitoneally; type: in vivo; conditions: intraperitoneal implant, preliminary data, FIG. 6
Experimental: as §1

Hep3B cell line = test: Cell viability in the Hep3B cell line (FIG. 9); type: cell-based; conditions: after 48 hours
[3] = test system: NCI 60-cancer cell panel (60 different human cancer cell lines); test: NCI 60-cancer cell panel, cell death; type: cell-based
Experimental: TAT-TRAIL was tested in an NCI 60-cancer cell panel, which included 60 different human cancer cell lines set up by the National Cancer Institute for cancer therapeutics screening. Among the 60 cell lines of various cancer types, 33 were sensitive to parental TRAIL, but 27 were resistant.

[4] = of the 60 NCI cancer cell lines
[5] = among the 60 cell lines of various cancer types

## recombinant human TRAIL: recombinant human tumor necrosis factor-related apoptosis-inducing ligand tested in clinical studies
[1]
  tolerability: well tolerated

B1: TAT-TRAIL: fusion protein: TRAIL component fused to a 9-amino acid TAT peptide (RKKRRQRRR, SEQ ID NO:2); e.g. poly-His-TAT-hTRAIL94-281 (SEQ ID NO:3) (protein)
chain: HHHHHHRKKRRQRRRRTSEETISTVQEKQQNISPLVRERGPQRVAAHITGTRGRSNTLSSPNSKNEKALGRKINSWESSRSGHSFLSNLHLRNGELVIHEKGFYYIYSQTYFRFQEEIKENTKNDKQMVQYIYKYTSYPDPILLMKSARNSCWSKDAEYGLYSIYQGGIFELKENDRIFVSVTNEHLIDMDHEASFFGAFLVG
modifications: TAT-TRAIL
A2780 cells
  antitumor effects: notable antitumor effects; also recorded: remarkable antitumor effects
Cancer cell lines; TRAIL-resistant cancer cells
  cell death in TRAIL-resistant cancer cells: induced massive cell death in TRAIL-resistant cancer cells
Cancer cell lines; cancer cell lines
  time to induce cell death: less than 1 hour
Cancer cell lines; cancer cells and normal cells
  potency in inducing cell death, cancer cells versus normal cells: remarkable high potency in inducing cell death in cancer cells but not normal cells
[2]
  caspase activity compared to control and His-tagged parental TRAIL: higher caspase activity
OVCAR3 cells
  antitumor effects: notable antitumor effects; also recorded: remarkable antitumor effects
Hep3B cell line
  IC50 (cell viability): low
  potency as compared to the His-tagged parental TRAIL: approximately sixty times greater potency
[3]; TRAIL-sensitive cell lines (33 of 60), FIG. 5
  cell death in TRAIL-sensitive cell lines compared with His-tagged parental TRAIL construct: faster and massive cell death in all 33 TRAIL-sensitive cell lines
[3]; cell lines resistant to parental TRAIL
  increase of potency over parental TRAIL: up to a hundred times
[3]; [4]
  number of TRAIL-sensitive cell lines that become more sensitive: 33
  number of cell lines that remain resistant: 10
[3]; out of the 27 cell lines resistant to parental TRAIL
  number of TRAIL-resistant cell lines in which effective cell death was executed (become sensitive): 17

B2: parental TRAIL: His-tagged parental TRAIL construct without TAT peptide, used as comparator (protein, UniProt P50591 39-281, looked up)
extracellular domain: TNELKQMQDKYSKSGIACFLKEDDSYWDPNDEESMNSPCWQVKWQLRQLVRKMILRTSEETISTVQEKQQNISPLVRERGPQRVAAHITGTRGRSNTLSSPNSKNEKALGRKINSWESSRSGHSFLSNLHLRNGELVIHEKGFYYIYSQTYFRFQEEIKENTKNDKQMVQYIYKYTSYPDPILLMKSARNSCWSKDAEYGLYSIYQGGIFELKENDRIFVSVTNEHLIDMDHEASFFGAFLVG
modifications: extracellular domain His tag
notes: His-tagged parental TRAIL construct without TAT peptide, used as comparator
[3]; [5]
  number of cell lines resistant to the agent: 27
  number of cell lines sensitive to the agent: 33
